The source of these data is patent US20260028402A1.

The experiment deals with HuCD100-His (human) (UniProt Q92854). Description: cell-based or functional assay.

B1: Pepinemab (antibody, INN chains, looked up, V domains shown)
VH: QVQLVQSGAEVKKPGSSVKVSCKASGYSFSDYYMHWVRQAPGQGLEWMGQINPTTGGASYNQKFKGKATITVDKSTSTAYMELSSLRSEDTAVYYCARYYYGRHFDVWGQGTTVTVSS
VL: DIVMTQSPDSLAVSLGERATINCKASQSVDYDGDSYMNWYQQKPGQPPKLLIYAASNLESGVPDRFSGSGSGTDFTLTISSLQAEDVAVYYCQQSNEDPYTFGQGTKLEIK
modifications: IgG4
B1: the MDSC proportion (%) at 2.821 nM antibody worked out at 27.1%, the MDSC proportion (%) at 8.463 nM antibody is 16.3%, the MDSC proportion (%) at 25.389 nM antibody was 8.29% and the MDSC proportion (%) at 76.166 nM antibody is 6.92%. Besides, the MDSC proportion (%) at 228.498 nM antibody is 6.97% and the MDSC proportion (%) at 685.495 nM antibody is 10.3%.
